# Test results from patent US11505583B2, “Proteins for the treatment of epithelial barrier function disorders” (Second Genome, Inc., priority 2018, dated 2022).
# Tests used:
# [1] = Post-translational modifications after storage, LC-MS/MS, SG-11 vs SG-11V5 (Example 10); assay type: physicochemical; settings: for Oxidation of M1 (MLEGEESVVYVGK): 1 mg/ml in Buffer 1 (50 mM NaPO4, pH 8, 150 mM NaCl, 10% glycerol)
# Method: In accordance with PTMs observed when SG-11 (SEQ ID NO:9) was subjected to stress conditions (Example 11), SG-11V5 (SEQ ID NO:19) was analyzed by LC-MS/MS for post translational modifications using the methods described in Example 11, and compared with PTMs for SG-11 (SEQ ID NO:7)
# For this analysis, PTMs of wildtype SG-11 (SEQ ID NO:7) and SG-11V5 (SEQ ID NO:19) were compared. In the first analysis (results provided in Table 10 below), the proteins were stored at a concentration of 1 mg/ml in Buffer 1 (50 mM NaPO4^−, pH 8, 150 mM NaCl, 10% glycerol) and stored for 2 weeks at either 4° C. or 40° C. The proteins were then treated with DTT and IAA, followed by trypsin digestion. The digested samples were then analyzed by Waters ACQUITY UPLC couples to Xevo G2-XS QTOF mass spectrometer using a Protein BEH C18 column.
# In a second analysis, the SG-11 (SEQ ID NO:7) and SG-11V5 (SEQ ID NO:19) proteins were each stored at 40° C. in a variety of buffers. The storage buffer used in this experiment was 100 mM NaPO4^−, pH7, with 10% sorbitol (+Sor) or without 10% sorbitol (−Sor) and with 10% glycerol (+Gly) or without 10% glycerol (−Gly) as indicated in Table 11. […] There were also differences in levels of N137 deamidation for the two proteins with the presence of at least glycerol and also the presence of both sorbitol and glycerol resulting in large decreases in N137 deamidation.
# [2] = Stability in storage buffer formulations by analytical SEC (Example 11); assay type: physicochemical
# Method: Although SG-11 protein is very stable at high temperature, forming aggregations at 37° C. in a week could be the problem at the downstream processing stage. Deamidation of asparagine residues found by LC/MS/MS are also a risk factor. In order to improve the manufacturability of a protein comprising SEQ ID NO:3 or variants thereof, the protein depicted as SG-11 (SEQ ID NO:7) was mutated to contain the following 4 substitutions: N53S, N83S, C147V and C151S. This variant with 4 substitutions is designated as SG-11V5, provided herein as SEQ ID NO:19. The stability of purified SG-11 and SG-11V5 was tested in different storage buffer formulations. SG-11V5 (SEQ ID NO:19) has about 98.3% sequence identity to SEQ ID NO:7.
# Specifically, purified SG-11 (SEQ ID NO:7) was incubated in pH 5.2 (FIGS. 15A, 15B and 15C), pH 7.0 (FIGS. 15D, 15E and 15F) and pH 8.0 (FIGS. 15G, 15H and 15I). Effect of additives was also tested at the 3 different pH conditions: 150 mM NaCl (FIGS. 15A, 15D and 15G); 150 mM NaCl and 100 mM arginine (FIGS. 15B, 15E and 15H); and 150 mM NaCl and 0.5 M sorbitol (FIGS. 15C, 15F and 15I). Stability was analyzed by analytical SEC. Arrow heads indicate the retention time of the monomeric form.
# SG-11V5 (SEQ ID NO:19) was incubated in pH 5.2 (FIGS. 16A, 16B and 16C), pH 7.0 (FIGS. 16D, 16E and 16F) and pH 8.0 (FIGS. 16G, 16H and 16I). Effect of additives was also tested at the 3 different pH conditions: 150 mM NaCl (FIGS. 16A, 16D and 16G); 150 mM NaCl and 100 mM Arg (FIGS. 16B, 16E and 16H); and 150 mM NaCl and 0.5 M sorbitol (FIGS. 16C, 16F and 16I). Stability was analyzed by analytical SEC. Arrow heads indicate the retention time of the monomeric form.
# [3] = 4° C., 2 weeks, 1 mg/ml in Buffer 1 (pH 8)
# [4] = 40° C., 2 weeks, 1 mg/ml in Buffer 1 (pH 8)
# [5] = 40° C., 100 mM NaPO4, pH7, +Sor (10% sorbitol) −Gly
# [6] = 40° C., 100 mM NaPO4, pH7, +Sor +Gly
# [7] = 40° C., 100 mM NaPO4, pH7, −Sor +Gly (10% glycerol)
# [8] = 40° C., 100 mM NaPO4, pH7, −Sor −Gly
Molecule,"Oxidation of M1 (MLEGEESVVYVGK) ([1]; 4° C., 2 weeks) [%]","Deamidation of N137 (ANTDVK) [1, 3] [%]","Oxidation of M1 (MLEGEESVVYVGK) ([1]; 40° C., 2 weeks) [%]","Deamidation of N137 (ANTDVK) [1, 4] [%]","Deamidation of N137 [1, 5] [%]","Oxidation of M1 [1, 5] [%]","Deamidation of N137 [1, 6] [%]","Oxidation of M1 [1, 6] [%]","Deamidation of N137 [1, 7] [%]","Oxidation of M1 [1, 7] [%]","Deamidation of N137 [1, 8] [%]","Oxidation of M1 [1, 8] [%]",Behaviour at pH 5.2 [2],also measured
"SG-11 (SEQ ID NO:7): Recombinant SG-11 with N-terminal methionine, 233 amino acids, no N-terminal tag (protein) MLEGEESVVYVGKKGVIASLDVETLDQSYYDETELKSYVDAEVEDYTAEHGKNAVKVESLKVEDGVAKLKMKYKTPEDYTAFNGIELYQGKVVASLAAGYVYDGEFARVEEGKVVGAATKQDIYSEDDLKVAIIRANTDVKVDGEICYVSCQNVKLTGKDSVSIRDGYYLETGSVTASVDVTGQESVGTEQLSGTEQMEMTGEPVNADDTEQTEAAAGDGSFETDVYTFIVYK",8.9,1.0,12.5,0.9,2.6,12.1,2.5,27.8,3.0,38.6,0.9,20,precipitated,"Deamidation of N83 [1, 3]: 19.4%; Deamidation of N83 [1, 4]: 98.1%; Deamidation of N83 [1, 5]: 93.9%; Deamidation of N83 [1, 6]: 87.4%; Deamidation of N83 [1, 7]: 96.2%; Deamidation of N83 [1, 8]: 98.1%; Aggregate formation (analytical SEC) ([2]; 100 mM arginine at pH 7.0 (150 mM NaCl), FIG. 15): greatly suppressed"
"SG-11V5: SG-11 variant SEQ ID NO:19 comprising N53S, N83S, C147V, C151S with respect to SEQ ID NO:7 (protein) MLEGEESVVYVGKKGVIASLDVETLDQSYYDETELKSYVDAEVEDYTAEHGKSAVKVESLKVEDGVAKLKMKYKTPEDYTAFSGIELYQGKVVASLAAGYVYDGEFARVEEGKVVGAATKQDIYSEDDLKVAIIRANTDVKVDGEIVYVSSQNVKLTGKDSVSIRDGYYLETGSVTASVDVTGQESVGTEQLSGTEQMEMTGEPVNADDTEQTEAAAGDGSFETDVYTFIVYK",2.5,0.1,4.7,0.3,3.3,3.3,0.1,5.9,0.4,5.6,1.5,2.7,precipitated,"Aggregation (analytical SEC) ([2]; all conditions tested: pH 5.2, 7.0, 8.0, 150 mM NaCl ± 100 mM arginine or 0.5 M sorbitol, FIG. 16): did not show large amount of aggregation; Stability compared with SG-11 ([2]; pH 7.0 and pH 8.0): improved stability; Small aggregation peak at 1.34 mL (analytical SEC) ([2]; with 100 mM arginine or 0.5 M sorbitol): suppressed"
